Measured values reported in patent US20160310572A1, “COMPOSITIONS AND METHODS TO DIAGNOSE DIABETES AND/OR TO TREAT NEGATIVE EFFECTS OF DIABETES” (WAYNE STATE UNIVERSITY, priority 2013, published 2016).
“Also recorded” adds a separate entry of the source.

What was measured:
[1] = Example 2: occurrence and/or severity of ulcers; format: in vivo; details: end point: slit lamp microscopy for surface (ir)regularity
Description: (§1) Compositions can also be administered in effective amounts to promote re-epithelialization, reduce the occurrence and/or severity of ulcers and preserve nerve function (appropriate signal potentiation) and/or integrity (physical state of the nerve itself). Objective measures for re-epithelialization include, without limitation, slit lamp microscopy with fluorescence staining. Objective measures for reduction and/or severity of ulcers include, without limitation, slit lamp microscopy for surface (ir)regularity. Objective measures for preservation of nerve function include corneal sensitivity measures. Objective measures for preservation of nerve integrity include in vitro confocal microscopy to determine the nerve fiber health (length, diameters and branches.)
(§2) A number of experiments are conducted to further define the role of up-regulation of TGFβ1, TGFβ2, TGFβ3, Serpine 1, fibronectin, lumican, epidermal growth factor ligands, activin and Nodal as well as the down-regulation of sEH/Ephx2 in the promotion of wound healing, promotion of re-epithelialization, reduction of the occurrence and/or severity of ulcers, preservation of nerve function and/or integrity, promotion of eye health and maintenance of vision. In the experiments, each experiment having relevant control conditions, each of the listed compounds is administered as part of a therapeutic composition (including as a direct therapeutic and/or as part of a genetic therapy as described herein).

[2] = Example 2: promotion of re-epithelialization; format: in vivo; details: end point: establishment of a biological barrier or Superficial Punctate Keratitis
Description: as §1, §2

GK rat corneas = test: Epithelial wound closure in GK rat corneas after subconjunctival recombinant TGFβ3; format: in vivo; details: GK rats, 40 ng in 20 μl subconjunctival 4 hours prior to debridement, 5-mm wound, 42 h, vs PBS
Procedure: (§3) FIGS. 6A-6C. Effects of TGFβ3 on epithelial wound closure in GK rat corneas. (FIG. 6A) A total of 40 ng recombinant TGFβ3, with PBS as the control, was injected into subconjunctival space at two sites (10 μl each) of GK rats 4 hours prior to wounding. Corneal epithelial wound of 5-mm diameter was made and allowed to heal for 42 h and then fluorescence stained, and photographed. (FIG. 6B) Changes in the mean of the remaining wound areas in pixels were calculated by Adobe Photoshop software with p value listed, n=5. (FIG. 6C). CECs collected during wounding (Con) and 42 hpw in PBS and TGFβ3 treated corneas were extracted and subjected to Western blotting with listed antibodies; two samples out of 5 from post wounding corneas were shown with actin as the internal control. The anti-TGFβ1-3 antibodies recognized both latent (44, 25, 47 kDa, respectively) and active (15, 12, 15 kDa, respectively) forms, giving two bands in Western blotting. These figures are representatives of 5 corneas per condition from 2 independent experiments; ** p<0.01.
Corneal Epithelial Debridement Wound. […]
Exogenous TGFβ3 accelerates delayed epithelial wound closure in DM corneas. Whether exogenously-added TGFβ3 in DM corneas accelerates delayed epithelial wound closure in GK and STZ B6 mice was assessed next. […]

adult skin wounds = details: failure due to increased angiogenesis in post-surgery skin; cited from earlier work
[3] = tested on: corneas of type 1 DM rats and mice and type 2 DM rats; test: Epithelial wound healing in DM corneas of three rodent models (summary statements); format: in vivo; details: exogenous TGFβ3
Description: The described genome-wide cDNA microarrays were used to compare the gene expression profiles of WH versus UW and DM versus NL CECs. […] Without being bound to a single theory, the effects of TGFβs on epithelial wound closure are related to its ability to activate Smad-dependent and -independent pathways, to modulate its own expression, and to mediate target gene expression.
The altered expression of TGFβ3 was also confirmed in cultured human corneas post wound healing, indicating the relevance of the study. […] While the mechanisms underlying hyperglycemia-suppressed wound-induced TGFβ3 expression is unclear, early inhibitory effects of hyperglycemia on TGFβ3 expression, which differs from that of TGFβ1 (42), may exacerbate the suppression of TGFβ3 up-regulation in response to wounding.

STZ B6 mouse corneas = test: Epithelial wound closure in STZ B6 mouse corneas after subconjunctival recombinant TGFβ3; format: in vivo; details: STZ B6 mice, 14 ng subconjunctival 4 hours prior to wounding, 2 mm wound, 16 and 24 hpw, vs PBS
Procedure: (§4) FIGS. 7A-7C. Effects of TGFβ3 on epithelial wound closure in B6 and STZ B6 mouse corneas. […] A 2 mm epithelial wound was made and allowed to heal for 16 h in B6 mice and 24 h in STZ B6 mice, and then fluorescence stained, and photographed. 1) NL cornea injected with PBS, 2) NL corneal injected with TGFβ3, 3) DM (STZ) cornea injected with PBS, 4) DM corneal injected with TGFβ3. (FIG. 7B) Changes in the mean of the remaining wound areas in pixels were calculated by Adobe Photoshop software with p value listed, n=5. (FIG. 7C). CECs collected during wounding (first 2 lanes) and 16 hpw (1, 2) or 24 hpw (3, 4) in PBS (1, 3) and TGFβ3 (2, 4) treated corneas were extracted and subjected to realtime-PCR analysis for Serpine 1 expression, N=3, **p<0.01.
Corneal Epithelial Debridement Wound. Anesthetized rats and mice were first demarcated with a trephine in the central cornea (5-mm circular wound for rats and 2 mm for mice) and CECs were removed with a blunt scalpel blade under a dissecting microscope (4; 6; 7). The blade with scraped CECs was immediately immersed into liquid nitrogen and the visible ice was collected into a test tube, placed on dry ice and stored at −80° C. The sample was marked as unwounded (UW). Bacitracin ophthalmic ointment was applied to the cornea after surgery to prevent infection. […]

Serpine 1 = test: Realtime-PCR for Serpine 1 expression in CECs of TGFβ3 treated mouse corneas; format: in vivo; details: NL and DM mice, 16 or 24 hpw
Procedure: as §4
RNA Extraction and Real-time PCR. For RNA isolation, CECs were scraped off of corneas, with 2 corneas pooled into 1 tube as one sample. RNA was extracted from the collected CECs using RNeasy Mini Kit (QIAGEN). cDNA was generated with an oligo(dT) primer (Invitrogen) followed by analysis using real-time PCR with the Power SYBR Green PCR Master Mix (AB Applied Biosystems), based on the expression of β-actin.

[4] = tested on: Smad2/3, TGFβ1, TGFβ2, TGFβ3 in WH CECs; test: Western blotting of CECs of TGFβ3 treated GK rat corneas; format: in vivo; details: GK rats
Procedure: as §3
Determination of Protein Expression and Phosphorylation by Western Blot Analysis. The epithelial cells removed during corneal debridement (the control) and post-wound, but prior to wound closure, were collected from NL and DM rat corneas and lysed with radioimmunoprecipitation assay (RIPA) buffer. Protein concentrations were determined using Micro BCA kits. Levels of various proteins or their phosphorylation were determined using specific antibodies. For each condition, two samples were shown with β-actin levels as the internal controls.
Exogenous TGFβ3 accelerates delayed epithelial wound closure in DM corneas. Whether exogenously-added TGFβ3 in DM corneas accelerates delayed epithelial wound closure in GK and STZ B6 mice was assessed next. […] To assess if exogenously added TGFβ3 affects the isoform expression, antibodies against TGFβ1-3 were used for Western blotting. […] While some elevated active TGFβ3 molecules could be from exogenously added TGFβ3 (15 kDa), the latent form (47 kDa) can only be from endogenous sources, indicating an auto-regulation of TGFβ3 expression in rat corneas.

Activin
Treatment Outcome: Reduces occurrence and/or severity of ulcers [1]: Reduces occurrence
Treatment Outcome: Promotes re-epithelialization [2]: Promotes

TGβ1: TGFβ isoform 1 administered as part of a therapeutic composition
Treatment Outcome: Reduces occurrence and/or severity of ulcers [1]: Reduces occurrence
Treatment Outcome: Promotes re-epithelialization [2]: Promotes

B1: Nodal: composition that up-regulates SMAD-signaling (protein, UniProt Q96S42 238-347, looked up)
Nodal homolog: HHLPDRSQLCRKVKFQVDFNLIGWGSWIIYPKQYNAYRCEGECPNPVGEEFHPTNHAYIQSLLKRYQPHRVPSTCCAPVKTKPLSMLYVDNGRVLLDHHKDMIVEECGCL
Treatment Outcome: Reduces occurrence and/or severity of ulcers [1]: Reduces occurrence
Treatment Outcome: Promotes re-epithelialization [2]: Promotes

B2: TGβ2: TGFβ isoform 2 administered as part of a therapeutic composition (protein)
chain: ALDAAYCFRNVQDNCCLRPLYIDFKRDLGWKWIHEPKGYNANFCAGACPYLWSSDTQHTKVLSLYNTINPEASASPCCVSQDLEPLTILYYIGNTPKIEQLSNMIVKSCKCS
Treatment Outcome: Reduces occurrence and/or severity of ulcers [1]: Reduces occurrence
Treatment Outcome: Promotes re-epithelialization [2]: Promotes

B3: TGFβ3: recombinant Transforming Growth Factor beta 3 isoform, injected subconjunctivally (protein)
chain: ALDTNYCFRNLEENCCVRPLYIDFRQDLGWKWVHEPKGYYANFCSGPCPYLRSSDTTHSTVLGLYNTLNPEASASPCCVPQDLEPLTILYYVGRTPKVEQLSNMVVKSCKCS
rate of wound closure (GK rat corneas): substantially increasing
outcome of phase 3 clinical trials as anti-scarring agent (adult skin wounds): considered a failure
Treatment Outcome: Reduces occurrence and/or severity of ulcers [1]: Reduces occurrence
Treatment Outcome: Promotes re-epithelialization [2]: Promotes
epithelial wound healing in DM corneas [3]: promotes epithelial wound healing; also recorded: partially restores the healing rate
rate of epithelial closure (STZ B6 mouse corneas): significantly increased
Serpine 1 mRNA levels (Serpine 1): correlated to the levels of TGFβ3 activity
Smad2/3 phosphorylation in WH CECs ([4]; 42 hpw): enhancing
TGFβ3 expression (latent form, endogenous) ([4]; WH CECs): increased
TGFβ1 expression ([4]; WH DM CECs): no effects
levels of TGFβ2 ([4]; all samples): low and unchanged
